Like-named read-outs stand apart in the source and are kept apart here.
Legend:
[1] = system: patients with advanced MTC; details: human, in vivo; cited from earlier work
Procedure: So far, ^177Lu-labeled peptides targeting CCK2R have been used for PRRT in patients with advanced MTC. […] In a dose escalation study, six patients with advanced MTC were treated with up to three to four cycles of [^177Lu]Lu-PP-F11N (3 × 6 GBq or 4 × 8 GBq) ...

A431-CCK2R cells [2] = details: ~100 nM, 24 h treatment, 12 days colony formation, mean ± SD of four independent experiments in triplicate
Procedure: After this treatment, the medium was aspirated and the cells were gently washed twice with phosphate-buffered saline (PBS) and then incubated at 37 °C for 12 days to allow colony formation. At the end of the incubation period, the culture medium was removed, and the wells were gently rinsed twice with PBS.
Colonies were fixed by adding 1 mL of a 3:1 methanol–glacial acetic acid solution to each well and incubated for 20 min at room temperature in a chemical hood. The solution was removed and the fixed cells gently rinsed twice with 1 mL of PBS.
Staining was performed using 1 mL of Giemsa stain (modified solution; Sigma-Aldrich, St. Louis, MO, USA, CAS No. 32884) diluted 3.5:10 in Milli-Q water. Plates were incubated with the staining solution for 2 h at room temperature. After staining, wells were rinsed twice with Milli-Q water, and plates were inverted on absorbent paper to air-dry.
Colonies were counted manually, with each visible purple-stained cluster considered as one colony. […] Each data point represents the mean ± standard deviation (SD) of four independent experiments, each performed in triplicate.

[3] = human, in vivo, iv; cited from earlier work
Procedure: Due to disease progression observed at the radiologic follow-up examination during fourth-line treatment with topotecan (Figure 4a–f) and following confirmation of intense tracer uptake on [^68Ga]Ga-DOTA-MGS5 PET/CT, the patient underwent a preliminary dosimetric evaluation with [^177Lu]Lu-DOTA-MGS5 to calculate the absorbed dose to organs at risk and the tumor. After the intravenous administration of 1.5 GBq [^177Lu]Lu-DOTA-MGS5 (corresponding to a peptide dose of less than 100 µg), scintigraphic images were acquired at 30 min, 4 h, 24 h, 72 h and 96 h p.i. (Supplementary Figure S3A). As prev ...

A431-CCK2R cells [4] = format: cell-based, human; details: ~250 kBq, 2 nM/well; for relative viability: viability 72 h after treatment, % of non-irradiated control, n = 3
Procedure: To investigate the cytotoxic effect of [^177Lu]Lu-DOTA-MGS5 on A431-CCK2R cells in comparison with EBRT, cells were counted using a TC20 automated cell counter (Bio-Rad Laboratories, Hercules, CA, USA), seeded at a density of 1 × 10^5 cells per well in 6-well plates and incubated at 37 °C with 5% CO2. After 24 h, cells were irradiated with varying doses (2, 4 and 8 Gy) using a linear accelerator (Elekta Precise, Elekta Oncology Systems, Crawley, England, UK) or by incubation with [^177Lu]Lu-DOTA-MGS5 (~250 kBq, 2 nM/well) for 4 and 24 h followed by replacement with fresh medium. Incubation periods of 4 h and 24 h were selected based on the previously established internalization kinetics and the stability data obtained for [^177Lu]Lu-DOTA-MGS5 [25]. At the time point of 72 h after treatment, cell viability was assessed using a Beckman Coulter Vi-CELL AS cell viability analyzer (Beckman Coulter, Fullerton, CA, USA). The supernatant from each well was collected in 15 mL Falcon tubes. Cells were then washed twice with 1 mL of serum-free medium, and the wash fractions were combined with the respective supernatants. Trypsin (300 µL) was added to each well, and plates were incubated until detachment. Following detachment, 1 mL of medium was added to each well, and cells were rinsed and transferred to their respective Falcon tubes. This washing step was repeated twice, reaching a total volume of 3 mL. Cells were pelleted by centrifugation in a benchtop centrifuge (Megafuge™ 8; Thermo Fisher Scientific, Waltham, MA, USA) at 2000 rpm for 8 min at 4 °C, and the supernatant was discarded. Pellets were resuspended in 1 mL of cold serum-free medium. Samples were loaded into the Vi-CELL AS analyzer according to the manufacturer’s instructions. The number of viable cells in each treatment group was normalized to the mean number of viable cells in the non-irradiated control group and expressed as a percentage of the control.

patient with ED-SCLC = format: in vivo, human
Source text: A patient diagnosed with SCLC (initial stage: T4 N3 M1b with primary tumor of the left central lung and possible metastasis to the left adrenal gland) completed first-line systemic therapy with carboplatin/etoposide/atezolizumab (schedule: day 1–day 3, every three weeks) followed by maintenance therapy with atezolizumab and prophylactic cranial irradiation (fractions of 2 Gy each, reaching a total dose of 30 Gy; cognitive preservation with memantine). Subsequently, the entire primary tumor region, including the selectively involved lymph nodes on the left central side, was irradiated (fractions of 2 Gy, resulting in a total dose of 60 Gy). After completing EBRT approximately six months after diagnosis, the disease remained stable for the following four months. Ten months after diagnosis, a new metastasis to the right adrenal gland occurred, and re-induction therapy with carboplatin/etoposide/atezolizumab was administered (a total of four cycles; schedule: day 1–day 3, every three weeks). In the follow-up CT scan, progressive disease was identified again, and third-line therapy with cyclophosphamide/doxorubicin/vincristine was initiated (a total of four cycles; schedule: day 1–day 2, every three weeks). […] After 2 cycles, the disease again progressed. This time, there was progression of the primary tumor, liver metastases and new lymph node metastases. Thus, alternative image-guided treatment strategies were evaluated. […] Thus, the patient was considered eligible for PRRT with [^177Lu]Lu-DOTA-MGS5. PRRT was performed under the responsibility of the treating physician and after tumor board approval. According to the Austrian Medicines Act (Arzneimittelgesetz §8), named patient use (“Heilversuch”) was not subject to authorization by or notification to the authorities. Written informed consent was obtained from the patient. All procedures were in accordance with the principles of the 1964 Declaration of Helsinki and its subsequent amendments. The retrospective analysis of the data of the patient was exempted from consultation with the Ethics Committee by the Medical University of Innsbruck.
Adequate hydration was ensured through intravenous infusion of 1000 mL of 0.9% saline solution at a rate of 300 mL/h, starting 30 min before and continuing for 2 h after treatment administration. The patient received prophylactic antiemetic therapy with 4 mg ondansetron, as well as 4 mg dexamethasone and 40 mg pantoprazole, given 20 min before the treatment. Prophylactic antiemetic therapy was repeated 12 h after therapy.
[^177Lu]Lu-DOTA-MGS5 was administered intravenously via a dedicated peristaltic infusion pump system over a period of 15–20 min. The patient was discharged at the third day following therapy. The treatment was repeated approximately every four weeks.
Whole-body SPECT/CT after each therapy cycle was performed using a dual-head SPECT/CT system (NM/CT 870 DR; GE Healthcare, Chicago, IL, USA) approximately 24 h after injection of [^177Lu]Lu-DOTA-MGS5. The acquisition consisted of 60 projections over 360° with an angular step of 6° and a dwell time of 20 s per projection. A medium-energy general-purpose collimator was used. The primary energy window was set to 187.2–228.8 keV and the scatter window to 169.1–186.9 keV. SPECT images were reconstructed using the manufacturer’s proprietary algorithms (OSEM with resolution recovery), using 2 iterations and 10 subsets and no post-reconstruction filtering. The reconstructed matrix size was 128 × 128, with a pixel size of 4.42 mm. Photon scatter correction was performed using the dual energy window method, and attenuation correction was performed using a low-dose CT scan acquired at 120 kVp, 30 mAs effective, with CareDose4D activated. Whole-body planar imaging was performed in anterior and posterior views using the same system. The scan was conducted in supine position, feet-first orientation. The table traversed 1.14 m at a speed of 10 cm/min. […]

[5] = human, in vivo
Procedure: For dosimetry, both planar and SPECT/CT imaging were performed at nominal time points of 30 min and 4, 24, 72 and 96 h post-injection (p.i.). The acquisition protocol for the first three time points followed the procedure described above. For the 72 and 96 h scans, the dwell time per projection for SPECT acquisition was increased to 24 s, and the planar scan speed was reduced to 8 cm/min to compensate for the reduced count statistics at later time points. The gamma camera sensitivity was calibrated according to the GE Healthcare-recommended protocol (DICOM Conformance Statement: NM General Purpose 600/800 Series, Rev. 15, 2018). A Petri dish containing a known activity of lutetium-177 was used as the calibration source, yielding a calibration factor of 5.2 cps/MBq. To correct for partial volume effects (PVEs), recovery coefficients (RCs) were determined using an IEC-NEMA phantom with fillable spheres of varying diameters, and a Jaszczak phantom containing a 60 mm sphere (Data Spectrum Corporation, Hillsborough, NC, USA). For each sphere, RCs were calculated, and a logarithmic regression model was fitted to generate a recovery curve. Two selected well-delineable lesions were segmented on 24 h p.i. SPECT images using a 41% isocontour threshold in Affinity 3.0 (Hermes Medical Solutions, Stockholm, Sweden). Subsequently, SUVmax values normalized to body weight were computed and corrected for PVEs using the corresponding RCs. […] (Supplementary Figure S3A). […] Additionally, the mean absorbed dose to the tumor was 12.5 ± 10.2 Gy/GBq (range: 1.2-28 Gy/GBq) across five well-delineated lesions. The time-activity curves for kidneys, stomach wall and two selected lesions were fitted and extrapolated using non-linear regression. […] A tri-exponential function was used for the kidneys, while a bi-exponential model (with k3 = 0) was applied for the stomach wall and the two lesions. […]

## DOTA-(DGlu)6-Ala-Tyr-Gly-Trp-Nle-Asp-Phe-NH2 [[^177Lu]Lu-PP-F11N, ^177Lu-labeled CCK2R-targeting agonist]
[1]
  dose-limiting toxicity: without signs of dose-limiting toxicity
  median absorbed tumor dose: 0.88 Gy/GBq

## CCCC[C@@H](C(=O)N[C@@H](CC(=O)O)C(=O)N[C@@H](Cc1cccc2ccccc12)C(N)=O)N(C)C(=O)[C@H](Cc1c[nH]c2ccccc12)NC(=O)CNC(=O)[C@H](Cc1ccc(O)cc1)NC(=O)[C@H](C)NC(=O)[C@@H](CCC(=O)O)NC(=O)CN1CCN(CC(=O)O)CCN(CC(=O)O)CCN(CC(=O)O)CC1 [[^177Lu]Lu-DOTA-MGS5, metal not drawn]
A431-CCK2R cells [2]; 2 MBq/well
  clonogenic survival: 54.9 ± 10.9%
A431-CCK2R cells [2]; 250 kBq/well
  clonogenic survival: 82.7 ± 6.5%
[3]
  absorbed dose to the bone marrow: 0.022 Gy/GBq
  absorbed dose to the kidneys: 0.28 Gy/GBq
  absorbed dose to the stomach: 0.42 Gy/GBq
  absorbed dose to the tumor, range: 1.2–28 Gy/GBq
  mean absorbed dose to the tumor: 12.5 ± 10.2 Gy/GBq
A431-CCK2R cells [4]; 4 h and 24 h incubation, compared with EBRT 2, 4 and 8 Gy
  EBRT dose with comparable response: 2-4 Gy
A431-CCK2R cells [4]; 4 h incubation
  relative viability: 58.5 ± 3.3%
A431-CCK2R cells [4]; 24 h incubation
  relative viability: 55.5 ± 8.3%
Patient with ED-SCLC; SPECT 24 h p.i., dosimetry and first three cycles, PVE corrected
  change of SUVmax in two well-delineated lesions: only a minor decrease
Patient with ED-SCLC; SPECT/CT after the fourth cycle
  uptake in new disseminated liver metastases: negative
Patient with ED-SCLC; after the second administration
  clinical symptoms: improvement
Patient with ED-SCLC; approximately 24 h p.i.
  lesion uptake on serial SPECT/CT after each treatment cycle: overall stable uptake
Patient with ED-SCLC; at the fourth cycle of PRRT
  follow-up contrast-enhanced CT finding: continued disease progression
Patient with ED-SCLC; human, in vivo
  GGT: 74 U/L
  GOT: 44 U/L
  GPT: 14 U/L
  Karnofsky Index: 100%
  absorbed dose delivered to the tumor lesions during PRRT, range: 21-482 Gy
  absorbed dose of healthy tissue, bone marrow: 0.4 Gy
  absorbed dose of healthy tissue, kidneys: 5 Gy
  absorbed dose of healthy tissue, stomach: 7 Gy
  adverse effect following the first administration: mild nausea
  creatinine: 0.64 mg/dL
  eGFR: > 60 mL/min/1.73 m^2
  hematological, renal or hepatic toxicities in laboratory tests: no hematological, renal or hepatic toxicities
  mean absorbed dose delivered to the tumor lesions during PRRT: 215 Gy
  weight loss: approximately 2 kg
Patient with ED-SCLC; tumor marker during four administrations
  NSE levels: slight reduction after the first three administrations but increased by the fourth administration
[5]
  tracer clearance kinetics, CCK2R-positive stomach wall: slower and more prolonged washout
  tracer clearance kinetics, kidneys: rapid initial decline in activity
  tracer clearance kinetics, thoracic wall lesion and gastrointestinal tract lesion: gradual mono-exponential decrease in activity

Reference: article PMC12844804, “Paving the Way for CCK2R-Targeted Peptide Receptor Radionuclide Therapy with [^177Lu]Lu-DOTA-MGS5 in Patients with Small Cell Lung Cancer” (Pharmaceutics, 2026)
